Source: publication PMC11077054

How the values were obtained:
[1] = target: nYFP-CmoNAC1 (pumpkin)
[2] = target: nYFP-CmoNAC1 (pumpkin); remark: listed apart in the source

LUC/RLU ratio of the reporter with the NACbs of the CmoNCED6 promoter in tobacco: CmoNAC1 + CmoDREB2A against CmoNAC1 alone [1]: 87% | LUC/RLU ratio of the reporter with the NACbs of the CmoRBOHD1 promoter in tobacco: CmoNAC1 + CmoDREB2A against CmoNAC1 alone [1]: 67% | LUC/RLU ratio of the reporter with the NACbs of the CmoAKT1;2 promoter in tobacco: CmoDREB2A + CmoNAC1 against CmoNAC1 alone [2]: 99% | LUC/RLU ratio of the reporter with the NACbs of the CmoHKT1;1 promoter in tobacco: CmoDREB2A + CmoNAC1 against CmoNAC1 alone [2]: 107%
Substance: CmoDREB2A-cYFP (natural protein)
